Assay results reported in article PMC3277711 (Cell, 2012).

What was measured:
SEC = biological target: the molecule itself; assay: SEC
[1] = biological target: chicken CENP-T-W complex (CENP-T histone fold with CENP-W) (chicken) (UniProt F1NPG5); assay: SEC
crystal structure = biological target: the molecule itself; assay: crystal structure

B1: chicken CENP-S-X complex (full-length CENP-S with CENP-X) (complex)
chain 1: MEAAGGEQRELLIQRLRAAVHYTTGCLCQDVAEDKGVLFSKQTVAAISEITFRQCENFARDLEMFARHAKRSTITSEDVKLLARRSNSLLKYITQKSDELASSNMEQKEKKKKKSSAAKGRKTEENETPVTESEDSNMA
chain 2: MEEREGGFRKETVERLLRLHFRDGRTRVNGDALLLMAELLKVFVREAAARAARQAQAEDLEKVDIEHVEKVLPQLLLDFVV
Question: B1 was tested. Which “stoichiometry N” value (SEC) did it give?
Answer: The value was 2 CENP-S-X heterodimers in the oligomer.

Question: What about the stoichiometry N (CENP-S-X dimer per CENP-T-W dimer) [1] of the same binder?
Answer: Its stoichiometry N (CENP-S-X dimer per CENP-T-W dimer) is 1.

B2: chicken CENP-SΔC-X complex (complex)
chain 1: MEAAGGEQRELLIQRLRAAVHYTTGCLCQDVAEDKGVLFSKQTVAAISEITFRQCENFARDLEMFARHAKRSTITSEDVKLLARRSNSLLKYITQKSDELASSNME
chain 2: MEEREGGFRKETVERLLRLHFRDGRTRVNGDALLLMAELLKVFVREAAARAARQAQAEDLEKVDIEHVEKVLPQLLLDFVV
Question: For B2, which “stoichiometry N” value (crystal structure) is on record?
Answer: Its value is 2 CENP-S-X heterodimers in the oligomer.
